Data set [1] deals with FLT3-WT and FLT3-ITD AML leukemic blasts. As to the kind of experiment: SCNP signaling and apoptosis in FLT3-WT versus FLT3-ITD AML samples (Example 9). In kind it is cell-based, human. The text has this:
This example identifies intracellular signaling pathways associated with FLT3 ITD in two independent cohorts of diagnostic AML samples that serve as an improvement over current clinical tools in the identification of clinically meaningful altered FLT 3 and has implications for cohort selection in the development of FLT3 inhibitors. The two cohorts of data were further analyzed to investigate the differences in signaling between FLT-WT and FLT-ITD samples. The first cohort of data (“study 1”) comprised the 34 samples from University Health Network outlined in Table 16 and Table 19. The second cohort of data (“study 2”) comprised an 83 sample subset of MD Anderson Cancer Center data outlined in Table 16 (and Table 19). The 83 sample subset was selected based on known FLT3 mutation status. Both cohorts of data were used to investigate differences in FLT3 signaling between leukemic blasts and control data.
In order to further characterize wild-type FLT receptor signaling in AML, we compared FLT3L-induced signaling in the myeloblast population of control BMMC samples with FLT3L-induced signaling in the leukemic blast population of FLT3-WT AML samples.
Univariate analysis, unadjusted for multiple testing, was performed sequentially and independently on the two study cohorts in order to identify signaling nodes that distinguished with FLT3-ITD from FLT3-WT AML patient samples. […] Results from both studies include the AUC, Wilcoxon and t-test p-value for each node, and the number/mean value of the samples in the FLT3-ITD and FLT3-WT AML groups with common stratifying nodes summarized in FIG. 23. Although the majority of the discussion herein is directed to nodes that had similar reponses within the two cohorts of data, some differences were observed between the two cohorts of data. These differences may have been due to the different clinical characteristics of the two cohorts of data, specifically biases in the data from UHN.

In data set [2] the test system is AML myeloblasts (BMMC). In words: SCNP of paired diagnosis and relapse AML BMMC and independent diagnostic set (Example 5). The class given is cell-based, human. To be noted: paired diagnosis samples of Patients 1 and 2. The text has this:
All AML bone marrow mononuclear cells (BMMC) were derived from the bone marrow (BM) of AML patients treated at MD Anderson Cancer Center (MDACC) between September 1999 and September 2006. Clinical data were de-identified in compliance with Health Insurance Portability and Accountability Act regulations. Patient/sample inclusion criteria required a diagnosis of French-American-British (FAB) classification of M0 through M7 AML (excluding M3) AML, collection prior to therapy initiation and at least 50% viability upon sample thaw. For the identification of chemoresistant signaling profiles, two longitudinally paired BMMC samples at diagnosis (collection prior to the initiation of induction chemotherapy) and first relapse, were examined. An independent test set comprised of 47 BMMC samples collected at diagnosis from AML patients with a disease response of CR after high dose cytarabine based chemotherapy was used to assess the ability of the identified signaling profiles to predict disease relapse. Healthy, unstimulated BMMC (n=2) were purchased from a commercial source (All Cells) to serve as a control. All samples underwent fractionation over Ficoll-Hypaque prior to cryopreservation with 90% fetal bovine serum and 10% dimethyl sulfoxide and storage in liquid nitrogen.
The SCNP assay measured response to growth factors and cytokines involved in hematopoietic progenitor or myeloid biology (SCF, FLT3L, G-CSF, IL-27), drug transporter (ABCG2, MRP-1) and chemokine receptors (CXCR4) associated with adverse disease prognosis in AML, and the c-Kit growth factor receptor for SCF. The SCF and FLT3L-mediated PI3K/Akt and MAPK pathway is important for maintaining the hematopoietic stem cell pool; G-CSF-mediated Jak/STAT pathway activation is important for neutrophilic differentiation of hematopoietic progenitor cells; interleukin (IL)-27 mediated Jak/STAT pathway activation is important in regulating proliferation and differentiation of hematopoietic stem cells; CXCR4 expression is associated with disease relapse and decreased survival; and drug transporter expression levels (i.e. ABCG2 and MRP-1) are known to be associated with adverse prognosis in AML. All together, approximately 20 signaling nodes were evaluated in each sample.
SCNP assays were performed as described previously. Cryopreserved samples were thawed at 37° C. and washed once in warm PBS containing 10% FBS (HyClone, Waltham, Mass., USA) and 2 mM EDTA. […] The cells were re-suspended in RPMI containing 1% FBS, aliquoted to 100,000 cells/condition and rested for 1-2 hours at 37° C. […]

B1: IL-27: interleukin-27 (protein, UniProt Q8NEV9 29-243; Q14213 21-229, looked up)
Interleukin-27 subunit alpha: FPRPPGRPQLSLQELRREFTVSLHLARKLLSEVRGQAHRFAESHLPGVNLYLLPLGEQLPDVSLTFQAWRRLSDPERLCFISTTLQPFHALLGGLGTQGRWTNMERMQLWAMRLDLRDLQRHLRFQVLAAGFNLPEEEEEEEEEEEEERKGLLPGALGSALQGPAQVSWPQLLSTYRLLHSLELVLSRAVRELLLLSKAGHSVWPLGFPTLSPQP
Interleukin-27 subunit beta: RKGPPAALTLPRVQCRASRYPIAVDCSWTLPPAPNSTSPVSFIATYRLGMAARGHSWPCLQQTPTSTSCTITDVQLFSMAPYVLNVTAVHPWGSSSSFVPFITEHIIKPDPPEGVRLSPLAERQLQVQWEPPGSWPFPEIFSLKYWIRYKRQGAARFHRVGPIEATSFILRAVRPRARYYVQVAAQDLTDYGELSDWSLPATATMSLGK
Take B1: the “responsiveness to IL-27 stimulation” value in data set [1] (FLT3-ITD samples) is reported as “minimal responsiveness”. For the same molecule, the “IL-27-induced p-Stat responses” value in data set [1] (FLT3-WT samples) is listed as “wide range of p-Stat responses”. Also, the “responsive subpopulation in diagnosis samples” value in data set [2] is recorded as “no IL-27 responsive subpopulation was identified”.

B2: FLT-3L: fms-like tyrosine kinase receptor-3 ligand (protein, UniProt P49771 27-235, looked up)
Fms-related tyrosine kinase 3 …: TQDCSFQHSPISSDFAVKIRELSDYLLQDYPVTVASNLQDEELCGGLWRLVLAQRWMERLKTVAGSKMQGLLERVNTEIHFVTKCAFQPPPSCLRFVQTNISRLLQETSEQLVALKPWITRQNFSRCLELQCQPDSSTLPPPWSPRPLEATAPTAPQPPLLLLLLLPVGLLLLAAAWCLHWQRTRRRTPRPGEQVPPVPSPQDLLLVEH
As to B2, the “FLT3L-induced PI3K and MAPK pathway activation” value in data set [1] (FLT3-ITD samples compared to FLT3-WT samples) is “lower levels of induced and total PI3K and MAPK pathway activation”. In data set [1] (FLT3-WT AML samples), the “FLT3L-induced signaling at 15 minutes” value was “sustained p-Erk, p-CREB and p-Akt activation”; the “range of FLT3L-induced S6 signaling” value is reported as “wide range of S6 signaling”. In data set [1] (FLT3-WT AML samples, early time points (4 minutes, 10 minutes)), the “FLT3L-induced p-Akt and p-S6” value was “increased levels of p-Akt and p-S6”. In data set [2], the “responsive cells in diagnostic AML bone marrow samples” value is listed as ~1%.

The values above are taken from patent US8399206B2, “Methods for diagnosis, prognosis and methods of treatment” (Nodality, Inc., priority 2008, dated 2013).
